Patent US10487307B2, “Culture method for pluripotent stem cells” (FUJIFILM CORPORATION, priority 2013, dated 2019)

B1: RCP-25: comparative polypeptide, SEQ ID NO: 30; vitronectin positions 56-459 (protein)
chain: GPLGYTVYDDGEEKNNATVHEQVGGPSLTSDLQAQSKGNPEQTPVLKPEEEAPAPEVGASKPEGIDSRPETLHPGRPQPPAEEELCSGKPFDAFTDLKNGSLFAFRGQYCYELDEKAVRPGYPKLIRDVWGIEGPIDAAFTRINCQGKTYLFKGSQYWRFEDGVLDPDYPRNISDGFDGIPDNVDAALALPAHSYSGRERVYFFKGKQYWEYQFQHQPSQEECEGSSLSAVFEHFAMMQRDSWEDIFELLFWGRTSAGTRQPQFISRDWHGVPGQVDAAMAGRIYISGMAPRPSLAKKQRFRHRNRKGYRSQRGHSRGRNQNSRRPSRATWLSLFSSEESNLGANNYDDYRMDWLVPATCEPIQSVFFFSGDKYYRVNLRTRRVDTVDPPYPRSIAQYWLGCPAPGHL
modifications: Vitronectin-derived Recombinant Protein (RCP-25)
B2: RCP-26: comparative polypeptide, SEQ ID NO: 31; vitronectin positions 269-459 (protein)
chain: GPLGPSQEECEGSSLSAVFEHFAMMQRDSWEDIFELLFWGRTSAGTRQPQFISRDWHGVPGQVDAAMAGRIYISGMAPRPSLAKKQRFRHRNRKGYRSQRGHSRGRNQNSRRPSRATWLSLFSSEESNLGANNYDDYRMDWLVPATCEPIQSVFFFSGDKYYRVNLRTRRVDTVDPPYPRSIAQYWLGCPAPGHL
modifications: Vitronectin-derived Recombinant Protein (RCP-26)
B3: RCP-23: comparative polypeptide, SEQ ID NO: 28; vitronectin positions 1-55, 56-129 (protein)
chain: GPLGDQESCKGRCTEGFNVDKKCQCDELCSYYQSCCTDYTAECKPQVTRGDVFTMPEDEYTVYDDGEEKNNATVHEQVGGPSLTSDLQAQSKGNPEQTPVLKPEEEAPAPEVGASKPEGIDSRPETLHPGRPQP
modifications: Vitronectin-derived Recombinant Protein (RCP-23)
B4: Natural vitronectin: human vitronectin (extracted from human serum, BD Biosciences) (protein, listed as Homo sapiens)
chain: DQESCKGRCTEGFNVDKKCQCDELCSYYQSCCTDYTAECKPQVTRGDVFTMPEDEYTVYDDGEEKNNATVHEQVGGPSLTSDLQAQSKGNPEQTPVLKPEEEAPAPEVGASKPEGIDSRPETLHPGRPQPPAEEELCSGKPFDAFTDLKNGSLFAFRGQYCYELDEKAVRPGYPKLIRDVWGIEGPIDAAFTRINCQGKTYLFKGSQYWRFEDGVLDPDYPRNISDGFDGIPDNVDAALALPAHSYSGRERVYFFKGKQYWEYQFQHQPSQEECEGSSLSAVFEHFAMMQRDSWEDIFELLFWGRTSAGTRQPQFISRDWHGVPGQVDAAMAGRIYISGMAPRPSLAKKQRFRHRNRKGYRSQRGHSRGRNQNSRRPSRATWLSLFSSEESNLGANNYDDYRMDWLVPATCEPIQSVFFFSGDKYYRVNLRTRRVDTVDPPYPRSIAQYWLGCPAPGHL
modifications: glycosylated

What was measured:
[1] = Evaluation of adsorbability with respect to cell culture surface (OPA fluorescence); format: physicochemical; details: FIG. 1; for adsorbability with respect to the plate: 0 to 200 pmol/cm^2 added, 2 hours at 37° C., washed twice with PBS
Experimental: Each of the polypeptides of RCP-1 to RCP-11 and RCP-21 to RCP-26 obtained as above was diluted with a predetermined buffer such that they could be added to wells at a predetermined final concentration of 0 pmol/cm^2 to 200 pmol/cm^2. Thereafter, each of the polypeptides was added in an amount of 64 μL to a plasma-treated 96-well plate made of polystyrene (Tissue Culture-Treated, Falcon). Each of the polypeptides was allowed to adsorb onto the plate by being incubated for 2 hours at 37° C., and then the wells were washed twice with PBS, thereby obtaining surfaces coated with each of the polypeptides of RCP-1 to RCP-11 and RCP-21 to RCP-26.
Among the surfaces coated with each of the polypeptides obtained as above, the surfaces coated with RCP-1 and RCP-21 to RCP-26 were applied with 64 μL of a borate buffer and 64 μL of 1 N NaOH, followed by incubation for 24 hours at 80° C. and 100% humidity. After the resultant was air-cooled, 75 μL of a borate buffer was added to each well, and 50 μL of a reaction solution obtained by mixing OPA (o-phthalaldehyde: Wako Pure Chemical Industries, Ltd./methanol solution (160 mg/ml)) with N-acetyl-L-cysteine (NAC: Wako Pure Chemical Industries, Ltd.)/borate buffer solution (2 mg/ml) at a ratio of 1:100 (mass ratio) was further added thereto. After incubation for 30 minutes at 40° C., the fluorescence intensity thereof was measured by using an Envision Multilabel Counter (PerkinElmer Inc.) (excitation 355 nm/fluorescence 486 nm). A calibration curve was separately prepared from each of the polypeptide solutions so as to calculate the amount of the polypeptide adsorbed. In FIG. 1, a black rhombus indicates RCP-1, a black square indicates RCP-21, a black triangle indicates RCP-22, a black circle indicates RCP-23, a white rhombus indicates RCP-24, a white square indicates RCP-25, and a white triangle indicates RCP-26.

[2] = test system: human iPS cells ("Tic"); assay: Cell adhesiveness evaluation 1 (ALP activity of adhesive iPS cells); format: cell-based; details: 30,000 cells/well, 24 hours, n=3
Experimental: The cell adhesiveness of human iPS cells (“Tic”: Cell No. JCRB 1331: from National Institute of Biomedical Innovation. [567-0085, 7-6-8 Asagi Saito Ibaraki-City Osaka]) with respect to the aforementioned polypeptides was evaluated in the following manner.
As feeder cells for retaining the human iPS cells, EmbryoMax (registered trademark) (early mouse embryonic fibroblasts: resistant to hygromycin, treated with mitomycin C, derived from C57/BL6, third passage) (Millipore Corporation) was used. By using DMEM (Invitrogen) and a 10% (v/v) fetal bovine serum medium, the feeder cells were cultured for 24 hours and attached to a T25 flask (Corning Incorporated). As a medium for the human iPS cells, the one obtained by adding FGF-2 (Sigma-Aldrich Co, LLC.) to a medium composed as shown in Table 6 at a final concentration of 10 ng/ml was used.
By using the aforementioned medium, the human iPS cells were retained and cultured in a 5% (v/v, the same unit will be used hereinafter) CO2 incubator at 37° C. Except for the day after the seeding of the iPS cells, the medium was replaced every day. The subculture operation was performed by exfoliating the cells by using Dispase II (neutral protease Grade II, Roche) and separating the cells in an appropriate size by a pipetting operation.
The iPS cells cultured as described above were treated with TrypLE Select (Invitrogen) for 5 minutes at 37° C. and separated into a single cell. After being subjected to centrifugation for 2 minutes at 300 rpm, the cells were collected and suspended in TeSR2 (a medium not containing a heterogeneous animal-derived component and a serum component, STEMCELL Technologies.) containing Y-27362 ((R)-(+)-trans-N-(4-pyridyl)-4-(1-aminoethyl)-cyclohexane carboxamide.2HCl.H2O, an Rho binding kinase inhibitor, Wako Pure Chemical Industries, Ltd.) at a final concentration of 10 μM.
Each of RCP-1 to RCP-11, RCP-21, RCP-25, and RCP-26 as control, human vitronectin (extracted from human serum, BD Biosciences), and recombinant laminin (rLaminin-5: Oriental Yeast Co., ltd. and Human Recombinant Laminin-511: BIOLAMINA AB) was added to and suspended in a predetermined buffer (a dialysis buffer used in <GRAVY value and aggregation characteristics> described above for RCP-1 to RCP-11, and PBS for RCP-21, RCP-25, human vitronectin, and recombinant laminin) at the concentration shown in Table 7, thereby preparing samples 1 to 17. The samples were added to the respective wells of a 96-well plate and adsorbed onto the plate by being held for 2 hours at 37° C.
Into the respective wells of the 96-well plate treated with the peptides, iPS cells were seeded at a cell density of 30,000 cells/well. After the cells were cultured for 24 hours, the nonadhesive cells were washed off with PBS, and only the adhesive cells were immobilized by using 4% (v/v) paraformaldehyde (Wako Pure Chemical Industries, Ltd.). By using an Attophos (registered trademark) AP Fluorescent Substrate System (Promega Corporation), the ALP activity was calculated, and from the calibration curve, the number of undifferentiated iPS cells having the ALP activity was calculated. In Table 7, the cell adhesion rate is expressed as a ratio calculated by regarding the cell adhesion rate obtained from the sample 15 using natural vitronectin as being 100%. n=3.

[3] = test system: iPS cells; assay: Cell adhesiveness evaluation 3 (RCP-1 added amount); format: cell-based, human; details: added amount 130 pmol/cm^2; this surface = 100%; n=3
Experimental: The cell adhesiveness was evaluated in the same manner as in <Cell adhesiveness evaluation 1>, except that RCP-1 was used after the concentration thereof was adjusted to 125 pmol/cm^2 to 1,000 pmol/cm^2 by using PBS. In Table 10, the cell adhesion rate is expressed as a ratio calculated by regarding a cell adhesion rate with respect to the cell culture surface, onto which natural vitronectin is adsorbed at a concentration of 130 pmol/cm^2, as being 100%. n=3.

[4] = test system: iPS cells; assay: Evaluation of maintenance of undifferentiated state (reference examples); format: cell-based, human
Experimental: iPS cells collected in the same manner as in <Cell adhesiveness evaluation 1> were suspended in TeSR2. The iPS cells were seeded into 6-well plate (Tissue culture-treated, Falcon), onto which each of the samples 1, 2, 5, 6, and 7 used in <Cell adhesiveness evaluation 1> was adsorbed in the same manner as in <Cell adhesiveness evaluation 1>, and cultured in a CO2 incubator at 37° C. Except for the day after the seeding, the medium was replaced every day. In the same method as described above, the cells were subcultured every six days.
After being cultured for 1 month under the conditions described above, the cells were immobilized using 4% paraformaldehyde and treated with 1% Triton-X/PBS so as to enhance the membrane permeability. After the cells were subjected to a blocking treatment using an Image IT Signal Enhancer (Invitrogen), an anti-human NANOG antibody (AF 1997, R&D Systems, Inc.), an Alexa Fluor 555 binding rabbit anti-goat IgG antibody (Invitrogen), and DAPI (4′,6-diamidino-2-phenylindole, Dojindo Molecular Technologies, Inc.) were added thereto for labeling, and the cells were imaged using a fluorescence microscope.
FIGS. 3A and 4A show the iPS cells cultured on RCP-1; FIGS. 3B and 4B show the iPS cells cultured on RCP-11; FIGS. 3C and 4C show the iPS cells cultured on natural human vitronectin; FIGS. 3D and 4D show the iPS cells cultured on rLaminin-5; and FIGS. 3E and 4E show the iPS cells cultured on rLaminin-511. The scale bar in the images indicates […]. In FIGS. 3A to 3E, the images on the left side are full images of the colony, and the images on the right side are magnified images. In FIGS. 4A to 4E, the images on the left side are images of the cells stained with DAPI, and the images on the right side are images of the cells stained with an anti-NANOG antibody. The scale bar in FIGS. 3A to 4E indicates 200 μm.

[5] = added amount 200 pmol/cm^2, natural vitronectin (sample 15) = 100%

| Molecule | amount adsorbed onto the plate as fraction of the amount of polypeptides containing SEQ ID NO: 2 [1] | adsorbability with respect to the plate [1] | Cell adhesion rate (%) [2, 5] [%] | also measured |
| --- | --- | --- | --- | --- |
| RCP-24: comparative polypeptide, SEQ ID NO: 29; vitronectin positions 1-55 (GPLGDQESCKGRCTEGFNVDKKCQCDELCSYYQSCCTDYTAECKPQVTRGDVFTMPEDE; Vitronectin-derived Recombinant Protein (RCP-24)) [reference compound] | about ¼ | – | – | – |
| B1 | – | excellent adsorbability | 13.2 ± 3.4 | – |
| B2 | – | excellent adsorbability | 9.4 ± 2.9 | – |
| B3 | about ¼ | – | – | – |
| B4 | – | – | – | Cell adhesion rate (%) ([2]; added amount 130 pmol/cm^2, this sample = 100%): 100 ± 5.5%; Cell adhesion rate (%) [3]: 100 ± 5.5%; form of iPS cell colony ([4]; TeSR2, subcultured every six days, FIGS. 3A to 3E): form specific to undifferentiated cells; NANOG expression ([4]; cultured for 1 month in TeSR2, anti-NANOG staining, FIGS. 4A to 4E): strongly expressed NANOG in the entirety of the colony |
